Assay results as given in paper PMC3623905.
Several values for one entry are separate records, joined by “and”; a condition that tells them apart may be missing. Identical values can stand only once.

Columns and labels:
[1] = biological target: Proteolytically inactive recombinant insulin-degrading enzyme with Glu111 replaced by Gln (rat); assay: SEC with static light scattering (SLS); 200 μg injected into a Superdex G-200 column, working buffer, 0.5 ml/min; 90° light scattering with UV or refractive index; calibrated with BSA
[2] = biological target: Insulin-degrading enzyme wild type (rat); assay: as above

| Substance | stoichiometry N [1] | stoichiometry N [2] |
| --- | --- | --- |
| Proteolytically inactive recombinant insulin-degrading enzyme with Glu111 replaced by Gln | 2 and 4 |  |
| Insulin-degrading enzyme wild type |  | 4 and 2 |
